Assay results taken from US20210347865A1 (STATEN BIOTECHNOLOGY B V, published 2021).

Assays:
native human ApoC3 [1] = target: T1, native human ApoC3 (human, UniProt P02656 21-99, biotinylated in the captured-antigen assays (Tables 6 and 8); sites not stated); assay: SPR, IgG captured via anti-human Fc, ApoC3 analyte 50 nM
T1 construct: also called nhuApoC3; native huApoC3
Procedure: (§1) Immobilization was performed in accordance with the method provided by Biacore in the NHS/EDC kit (Biacore AB). Briefly, after activation of the chip, a solution of 30 μg/ml anti-human Fcγ antibody in 10 mM acetate buffer with pH 5.0 was injected until the surface density reached approximately 10,000 RU. […] Following antibody capture, 100 μl of HBS-EP buffer was injected and passed through the flow cells at 30 μl/min. To bind target, 60 μl of 400 nM, 200 nM, 100 nM, or 50 nM ApoC3 protein in HBS-EP buffer was injected. An off-rate wash was performed by injection of HBS-EP buffer at 30 μl/min for 5 min. After dissociation, the flow cell surfaces were regenerated by injecting 20 μl of 10 mM glycine at pH 1.5.
(§2) The resulting sensorgrams were analysed with BIAevaluation 4.1 software using the Langmuir 1:1 binding model to derive binding kinetics. Data was zero adjusted and the reference cell sensorgrams were subtracted. A no-analyte blank assay was used for double referencing the sensorgrams corresponding to nhuApoC3 and rcyApoC3 injections. The dissociation and association phase sensorgrams were fitted separately for the 4 different concentration curves. Sensorgrams were excluded from the fitting if maximum RU values were below the limit of detection (i.e., <5 RU). SPR signals were too low to calculate kinetic parameters for […].

native human ApoC3 [2] = target: T1, native human ApoC3; assay: SPR, IgG captured via anti-human Fc, ApoC3 analyte 100 nM
Procedure: as §1, §2

native human ApoC3 [3] = target: T1, native human ApoC3; assay: SPR, IgG captured via anti-human Fc, ApoC3 analyte 200 nM
Procedure: as §1, §2

native human ApoC3 [4] = target: T1, native human ApoC3; assay: SPR, IgG captured via anti-human Fc, ApoC3 analyte 400 nM
Procedure: as §1, §2

native human ApoC3 [5] = target: T1, native human ApoC3; assay: SPR, biotinylated antigen captured on streptavidin chip, IgG as analyte, pH 7.4
native human ApoC3 [6] = target: T1, native human ApoC3; assay: SPR, antigen immobilized on CM5 chip, IgG as analyte, pH 7.4; footnote: n/a: not applicable; below the limits of detection kd: 1E-06 1/s
[7] = target: T2, recombinant cynomolgus ApoC3 (cynomolgus monkey, UniProt P18659 21-99, biotinylated in the captured-antigen assays (Tables 6 and 8); sites not stated); assay: SPR, IgG captured via anti-human Fc, ApoC3 analyte 50 nM
T2 construct: No cleavage site is stated, so none is applied; also called rcyApoC3; bio-rcyApoC3
T2 sequence (P18659 21-99 limits assumed): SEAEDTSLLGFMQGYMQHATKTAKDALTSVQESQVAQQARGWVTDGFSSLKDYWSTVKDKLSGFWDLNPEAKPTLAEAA
Procedure: as §1, §2

[8] = target: T2, recombinant cynomolgus ApoC3; assay: SPR, IgG captured via anti-human Fc, ApoC3 analyte 100 nM
Procedure: as §1, §2

[9] = target: T2, recombinant cynomolgus ApoC3; assay: SPR, IgG captured via anti-human Fc, ApoC3 analyte 200 nM
Procedure: as §1, §2

[10] = target: T2, recombinant cynomolgus ApoC3; assay: SPR, IgG captured via anti-human Fc, ApoC3 analyte 400 nM
Procedure: as §1, §2

[11] = target: T2, recombinant cynomolgus ApoC3; assay: SPR, antigen immobilized on CM5 chip, IgG as analyte, pH 7.4
[12] = target: T2, recombinant cynomolgus ApoC3; assay: SPR, biotinylated antigen captured on streptavidin chip, IgG as analyte, pH 7.4
native human ApoC3 [13] = target: T1, native human ApoC3; assay: SPR, biotinylated antigen captured on streptavidin chip, IgG as analyte, pH 7.4; footnote: n/a: not applicable; below the limits of detection kd: 1E-06 1/s
native human ApoC3 [14] = target: T1, native human ApoC3; assay: SPR, antigen immobilized on CM5 chip, IgG as analyte, pH 7.4
[15] = target: T2, recombinant cynomolgus ApoC3; assay: SPR, antigen immobilized on CM5 chip, IgG as analyte, pH 7.4; antigen immobilized on chip, IgG as analyte (50-0.8 nM)
[16] = target: T2, recombinant cynomolgus ApoC3; assay: SPR, biotinylated antigen captured on streptavidin chip, IgG as analyte, pH 7.4; biotinylated antigen captured on streptavidin chip, IgG as analyte
[17] = target: T2, recombinant cynomolgus ApoC3; assay: SPR, antigen immobilized on CM5 chip, IgG as analyte, pH 7.4; antigen immobilized on chip, IgG as analyte (12.5-0.8 nM)

T1 sequence (P02656 21-99): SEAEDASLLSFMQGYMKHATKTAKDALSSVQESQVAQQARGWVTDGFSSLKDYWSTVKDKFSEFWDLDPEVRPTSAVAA

B1: 5E5 WT IgG (antibody, V domains shown)
VH: QLQLVESGGGLVQPGGSLRLSCAASGFTFGTYSMRWVRQVPRKALEWVSSISTDGGGTAYRDSVKGRFTISRDNAKNTLYLQMNNLKPEDTAIYYCVIAGYSDWGQGTQVTVSS
VL: ATMLTQSPGSLSVVPGESASISCKTSQGLVHSDGKTYFYWFLQKPGQSPQQLIYQVSNRASGVPDRFTGSGSGTDFTLKISGVKAEDAGVYYCAQGTYYPHTFGSGTRLEIK
notes: Full-length IgG captured by an anti-human Fc antibody
B1 gave a Kd (native human ApoC3 [1]) of 0.695 nM, a koff (native human ApoC3 [1]) of 0.000114 s⁻¹ and a kon (native human ApoC3 [1]) of 164000 M⁻¹ s⁻¹. It also gave a Kd (native human ApoC3 [2]) of 0.734 nM, a koff (native human ApoC3 [2]) of 0.000121 s⁻¹ and a kon (native human ApoC3 [2]) of 165000 M⁻¹ s⁻¹. For the same binder, the Kd (native human ApoC3 [3]) was 0.77 nM, the koff (native human ApoC3 [3]) was 0.000128 s⁻¹ and the kon (native human ApoC3 [3]) was 166000 M⁻¹ s⁻¹. The Kd (native human ApoC3 [4]) was 0.741 nM, the koff (native human ApoC3 [4]) was 0.000122 s⁻¹ and the kon (native human ApoC3 [4]) was 165000 M⁻¹ s⁻¹. The Kd (native human ApoC3 [5]) was 0.05 nM, the koff (native human ApoC3 [5]) was 1.8e-05 s⁻¹ and the kon (native human ApoC3 [5]) was 350000 M⁻¹ s⁻¹. For the same binder, the koff (native human ApoC3 [6]) was under 1e-06 s⁻¹.

B2: 29B03 IgG (antibody, V domains shown)
VH: QLQLVESGGGLVQPGGSLRLSCAASGFTFGTYSMRWVRQVPRKALEWVSSISTDGGGTAYRDSVKGRFTISRDNAKNTLYLQMNNLKPEDTAIYYCVIAGYSDWGQGTQVTVSS
VL: DVVLTQTPGSLSVVPGESASISCKAGQNLVHPDGKTYLYWLLQKPGQSPQRLIYQVSNRDSGVPDRFTGSGSGTDFTLKISGVKVEDAGVYYCAQGTYWPKTFGQGTKLEIK
In the case of B2, the Kd [7] is reported as 190 nM, the koff [7] is reported as 0.0127 s⁻¹ and the kon [7] is reported as 66800 M⁻¹ s⁻¹. It also gave a Kd (native human ApoC3 [2]) of 0.336 nM, a koff (native human ApoC3 [2]) of 8e-05 s⁻¹ and a kon (native human ApoC3 [2]) of 238000 M⁻¹ s⁻¹. For the same binder, the Kd [8] was 385 nM, the koff [8] was 0.014 s⁻¹ and the kon [8] was 36300 M⁻¹ s⁻¹. It also gave a Kd (native human ApoC3 [3]) of 0.35 nM, a koff (native human ApoC3 [3]) of 8.44e-05 s⁻¹ and a kon (native human ApoC3 [3]) of 241000 M⁻¹ s⁻¹. It also gave a Kd [9] of 297 nM, a koff [9] of 0.0137 s⁻¹ and a kon [9] of 46100 M⁻¹ s⁻¹. The Kd (native human ApoC3 [4]) was 0.401 nM, the koff (native human ApoC3 [4]) was 8.63e-05 s⁻¹ and the kon (native human ApoC3 [4]) was 215000 M⁻¹ s⁻¹. For the same binder, the Kd [10] was 367 nM, the koff [10] was 0.0145 s⁻¹ and the kon [10] was 39600 M⁻¹ s⁻¹. It also gave a Kd [11] of 0.18 nM, a koff [11] of 6.7e-05 s⁻¹ and a kon [11] of 380000 M⁻¹ s⁻¹. It also gave a Kd [12] of 0.33 nM, a koff [12] of 0.000104 s⁻¹ and a kon [12] of 320000 M⁻¹ s⁻¹. It also gave a koff (native human ApoC3 [6]) of under 1e-06 s⁻¹ and a koff (native human ApoC3 [13]) of under 1e-06 s⁻¹.

B3: 29F10 IgG (antibody, V domains shown)
VH: QLQLVESGGGLVQPGGSLRLSCAASGFTFGTYSMRWVRQVPRKALEWVSSISTDGGGTAYRDSVKGRFTISRDNAKNTLYLQMNNLKPEDTAIYYCVIAGYSDWGQGTQVTVSS
VL: DVVLTQTPGSLSVVPGEPASVSCKASQSLVHPDGKTYLYWLLQKPGQSPQRLIYQVSNRGSGVPDRFTGSGSGTDFTLEISGVKAEDAGVYYCAQGTYWPKTFGQGTKLEIK
In the case of B3, the Kd (native human ApoC3 [1]) is reported as 1.71 nM, the koff (native human ApoC3 [1]) is reported as 0.000246 s⁻¹ and the kon (native human ApoC3 [1]) is reported as 144000 M⁻¹ s⁻¹. For the same binder, the Kd (native human ApoC3 [2]) was 1.63 nM, the koff (native human ApoC3 [2]) was 0.000219 s⁻¹ and the kon (native human ApoC3 [2]) was 134000 M⁻¹ s⁻¹. The Kd (native human ApoC3 [3]) was 1.63 nM, the koff (native human ApoC3 [3]) was 0.000217 s⁻¹ and the kon (native human ApoC3 [3]) was 133000 M⁻¹ s⁻¹. The Kd (native human ApoC3 [4]) was 1.8 nM, the koff (native human ApoC3 [4]) was 0.000219 s⁻¹ and the kon (native human ApoC3 [4]) was 122000 M⁻¹ s⁻¹. The Kd (native human ApoC3 [14]) was 0.04 nM, the koff (native human ApoC3 [14]) was 2.4e-05 s⁻¹ and the kon (native human ApoC3 [14]) was 620000 M⁻¹ s⁻¹. For the same binder, the Kd [12] was 1.75 nM, the Kd [15] was 2.79 nM and the koff [15] was 0.000774 s⁻¹. It also gave a kon [15] of 280000 M⁻¹ s⁻¹, a koff [16] of 0.000388 s⁻¹ and a kon [16] of 220000 M⁻¹ s⁻¹. For the same binder, the koff (native human ApoC3 [13]) was under 1e-06 s⁻¹.

B4: 29G02 IgG (antibody, V domains shown)
VH: QLQLVESGGGLVQPGGSLRLSCAASGFTFGTYSMRWVRQVPRKALEWVSSISTDGGGTAYRDSVKGRFTISRDNAKNTLYLQMNNLKPEDTAIYYCVIAGYSDWGQGTQVTVSS
VL: DVVLTQTPGSLSVVPGESASISCKATQSLVHIDGKTYLYWLLQKPGQSPQRLIYQVSTRDSGVPDRFTGAGSGAEFTLKISGVKAEDAGVYYCAQDTYSTKTFGQGTKLEIK
With B4 the Kd (native human ApoC3 [1]) was 2.31 nM, the koff (native human ApoC3 [1]) was 0.000718 s⁻¹ and the kon (native human ApoC3 [1]) was 311000 M⁻¹ s⁻¹. For the same binder, the Kd (native human ApoC3 [2]) was 2.52 nM, the koff (native human ApoC3 [2]) was 0.000758 s⁻¹ and the kon (native human ApoC3 [2]) was 301000 M⁻¹ s⁻¹. The Kd (native human ApoC3 [3]) was 2.57 nM, the koff (native human ApoC3 [3]) was 0.000733 s⁻¹ and the kon (native human ApoC3 [3]) was 286000 M⁻¹ s⁻¹. It also gave a Kd (native human ApoC3 [4]) of 3.04 nM, a koff (native human ApoC3 [4]) of 0.000752 s⁻¹ and a kon (native human ApoC3 [4]) of 247000 M⁻¹ s⁻¹. The Kd (native human ApoC3 [14]) was 0.01 nM, the koff (native human ApoC3 [14]) was 1.6e-05 s⁻¹ and the kon (native human ApoC3 [14]) was 1.32e+06 M⁻¹ s⁻¹. For the same binder, the Kd (native human ApoC3 [5]) was 0.02 nM, the koff (native human ApoC3 [5]) was 3.3e-05 s⁻¹ and the kon (native human ApoC3 [5]) was 1.31e+06 M⁻¹ s⁻¹. The Kd [12] was 0.37 nM, the Kd [17] was 0.5 nM and the koff [17] was 0.000552 s⁻¹. It also gave a kon [17] of 1.11e+06 M⁻¹ s⁻¹, a koff [16] of 0.000275 s⁻¹ and a kon [16] of 750000 M⁻¹ s⁻¹.

B5: 29G11 IgG (antibody, V domains shown)
VH: QLQLVESGGGLVQPGGSLRLSCAASGFTFGTYSMRWVRQVPRKALEWVSSISTDGGGTAYRDSVKGRFTISRDNAKNTLYLQMNNLKPEDTAIYYCVIAGYSDWGQGTQVTVSS
VL: DVVLTQTPGSLSVVPGGSASISCKASQSLVYSDGKTYLYWLRQKPGQSPQRLIYQVSNRPSGVPDRFTGSGSGTDFTLKISGVKAEDAGVYYCAQDTYSTKTFGQGTKLEIK
In the case of B5, the Kd (native human ApoC3 [1]) is reported as 4.79 nM, the koff (native human ApoC3 [1]) is reported as 0.00115 s⁻¹ and the kon (native human ApoC3 [1]) is reported as 240000 M⁻¹ s⁻¹. For the same binder, the Kd (native human ApoC3 [2]) was 4.85 nM, the koff (native human ApoC3 [2]) was 0.00117 s⁻¹ and the kon (native human ApoC3 [2]) was 241000 M⁻¹ s⁻¹. It also gave a Kd (native human ApoC3 [3]) of 5.21 nM, a koff (native human ApoC3 [3]) of 0.00122 s⁻¹ and a kon (native human ApoC3 [3]) of 234000 M⁻¹ s⁻¹. The Kd (native human ApoC3 [4]) was 5.76 nM, the koff (native human ApoC3 [4]) was 0.00119 s⁻¹ and the kon (native human ApoC3 [4]) was 207000 M⁻¹ s⁻¹. It also gave a Kd (native human ApoC3 [14]) of 0.04 nM, a koff (native human ApoC3 [14]) of 6.3e-05 s⁻¹ and a kon (native human ApoC3 [14]) of 1.44e+06 M⁻¹ s⁻¹. It also gave a Kd (native human ApoC3 [5]) of 0.05 nM, a koff (native human ApoC3 [5]) of 7.3e-05 s⁻¹ and a kon (native human ApoC3 [5]) of 1.38e+06 M⁻¹ s⁻¹. The Kd [12] was 0.25 nM, the Kd [17] was 0.38 nM and the koff [17] was 0.000531 s⁻¹. It also gave a kon [17] of 1.4e+06 M⁻¹ s⁻¹, a koff [16] of 0.000228 s⁻¹ and a kon [16] of 920000 M⁻¹ s⁻¹.
